Columns and labels:
EphA2 [1] = target: T1, EphA2 (Rattus norvegicus, UniProt D3ZBN3); experiment: EphA2 activation and ERK status in MatLyLu cells; type: cell-based
T1 construct: greatly elevated in MatLu and MatLyLu variants; endogenous in cells; host or cells: MatLyLu (Dunning R-3327 rat prostate cancer subline)
Method: (§1) FIGS. 1(A-D) illustrate (A) EphA2 is the primary EphA kinase expressed on human prostate cancer cells. Cell surface proteins were labeled with membrane impermeable biotin (Method). Top panel: Saturating amount of ephrin-A1-Fc (EA1-Fc) was used to precipitate most EphA kinases. Lower panel: EphA2 was first immunodepleted from cell lysates with an EphA2-specific antibody. Saturating amount of ephrin-A1-Fc was then added to the EphA2-depleted cell lysates to precipitate other members of EphA kinases. The precipitates were subject immunoblot with HRP-labeled avidin. (B) Expression of EphA2, but not other EphA kinases and ephrin-As, is elevated in cell lines derived from more malignant prostate cancer. Total cellular proteins were immunoblotted with the indicated antibodies. (C) Immunofluorescence staining of EphA2. Human prostate cancer cells grown on cover slip were stained with anti-EphA2 antibody. Texas-Red labeled secondary was used to visualize the bound primary antibody. […] To determine the ERK activation status, total cell lysates were analyzed by immunoblot using anti-phospho ERK (p-ERK) antibody. […]
(§2) Cells cultured in 6 well plates at 70-80% confluence were stimulated with 0.5 μg/ml Fc, 1 μg/ml epnrinA1-Fc or 20 ng/ml HGF/SF or their combinations as indicated. […] For quantitative analysis, band densities were measured using KODAK 1D imagine analysis software (Eastman Kodak Company).

DU-145 cells = experiment: HGF/SF-induced cell scattering / EMT; type: cell-based, human
Method: FIGS. 4(A-B) illustrate EphA activation attenuated cell scattering induced by HGF/SF. DU-145 cells were cultured in the presence of indicated reagents. Cell morphology was recorded 24 and 48 hours after the initiation of treatments (A). Numbers of total cells and cells without contact with other cells were counted in 6-8 randomly chosen fields (B). * HGF/SF/Fc vs. HGF/SF/ephrinA1-Fc: p<10^−5.
Tumor cells scattering/detaching from primary tumors is considered as the first step in tumor metastasis. In addition to promoting cell migration and invasion, HGF/SF is known to disrupt cell-cell adhesion mediated by E-cadherin, induce epithelial-mesenchymal transition (EMT) and cause cell scattering. Therefore, we examined the effects of EphA2 activation on EMT and scattering induced by HGF/SF. DU-145 cells were treated with Fc (control) or ephrin-A1-Fc in the presence or absence of HGF/SF. Cell morphology was recorded 24 and 48 hours after the addition of stimuli (FIGS. 4A and B). In control Fc-treated cells, only about 5% of cells were found as individual cells with no direct contact with neighboring cells, while remaining cells aggregate to form colonies with typical epithelial morphology. […] Following 24 hour HGF treatment, most of cells underwent EMT characterized by detachment from each other and transformation into spindle-shaped fibroblastic morphology. […]

GFP-PC-3 cells = experiment: PC3 xenograft growth in nude mice; type: in vivo; design: s.c. tumor growth: dose or concentration left out as unconfirmed
Description: Frozen sections were stained with biotinylated rabbit anti-human Fc, and HRP-conjugated streptoavidin.

[2] = test system: integrin-mediated cell adhesion; experiment: Integrin-mediated cell adhesion to fibronectin; type: cell-based
[3] = test system: H125, H1975 and SKMES cells; experiment: ERK and AKT phosphorylation in non-small cell lung cancer cells; type: cell-based, human; conditions: 2 ìg/ml, 10 and 30 minutes
Description: (§3) FIGS. 47(A-C) illustrate A) Expression of β-gal in EphA2 KO mouse lung. Frozen sections were fixed and stained with X-gal and followed by counterstaining with nuclear Fast-Red. B) Expression of EphA2 in the lung from wild-type mice. Lung frozen sections were stained with goat polyclonal antibodies that recognize the ectodomain of EphA2 followed by detection with donkey anti-goat IgG conjugated with FITC. C) EphA kinase activation by ephrin-A1 in H125, H1975 and SKMES human non-small cell lung cancer cells. Cells were stimulated with 2 ìg/ml of ephrin-A1-Fc for 10 and 30 minutes.
as §3, with “FIG. 47A illustrates the expression” for “FIGS. 47(A-C) illustrate A) Expression”, “knockout” for “KO”, “FIG. 47B illustrates expression” for “B) Expression”, “FIG. 47C illustrates” for “C)”

EphA2 [4] = target: EphA2 (Homo sapiens, UniProt P29317); experiment: EphA2 activation and ERK status in DU-145 cells; type: cell-based; design: endogenous in cells; host or cells: DU-145 cells
Method: as §1, §2

Chain of EphA2 (Homo sapiens, UniProt P29317) (P29317 24-976): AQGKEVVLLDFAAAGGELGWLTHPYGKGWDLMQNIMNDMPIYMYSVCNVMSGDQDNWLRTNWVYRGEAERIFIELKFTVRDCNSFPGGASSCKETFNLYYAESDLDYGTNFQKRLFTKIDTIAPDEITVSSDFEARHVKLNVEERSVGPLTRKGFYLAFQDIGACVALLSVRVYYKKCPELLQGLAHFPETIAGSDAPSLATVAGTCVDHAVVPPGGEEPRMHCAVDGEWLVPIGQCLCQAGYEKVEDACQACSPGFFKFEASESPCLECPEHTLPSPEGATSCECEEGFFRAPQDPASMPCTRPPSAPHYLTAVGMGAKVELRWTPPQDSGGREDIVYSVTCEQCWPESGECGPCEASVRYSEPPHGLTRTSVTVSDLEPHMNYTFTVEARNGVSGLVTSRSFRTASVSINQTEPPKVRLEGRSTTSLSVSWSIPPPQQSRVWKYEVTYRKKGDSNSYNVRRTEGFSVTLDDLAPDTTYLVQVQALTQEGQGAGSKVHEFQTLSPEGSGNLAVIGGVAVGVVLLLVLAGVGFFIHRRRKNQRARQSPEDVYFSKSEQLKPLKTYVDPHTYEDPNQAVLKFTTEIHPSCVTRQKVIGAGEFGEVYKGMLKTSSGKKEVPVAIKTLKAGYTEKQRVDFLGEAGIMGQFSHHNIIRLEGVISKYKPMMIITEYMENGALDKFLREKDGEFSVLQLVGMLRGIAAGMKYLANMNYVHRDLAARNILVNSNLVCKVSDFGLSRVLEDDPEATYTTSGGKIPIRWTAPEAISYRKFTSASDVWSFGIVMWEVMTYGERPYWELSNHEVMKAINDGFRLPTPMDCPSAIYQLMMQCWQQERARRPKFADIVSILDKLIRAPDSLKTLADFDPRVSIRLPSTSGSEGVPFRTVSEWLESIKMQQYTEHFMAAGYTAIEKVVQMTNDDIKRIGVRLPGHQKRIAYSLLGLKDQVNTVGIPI
T1 sequence (D3ZBN3 1-977): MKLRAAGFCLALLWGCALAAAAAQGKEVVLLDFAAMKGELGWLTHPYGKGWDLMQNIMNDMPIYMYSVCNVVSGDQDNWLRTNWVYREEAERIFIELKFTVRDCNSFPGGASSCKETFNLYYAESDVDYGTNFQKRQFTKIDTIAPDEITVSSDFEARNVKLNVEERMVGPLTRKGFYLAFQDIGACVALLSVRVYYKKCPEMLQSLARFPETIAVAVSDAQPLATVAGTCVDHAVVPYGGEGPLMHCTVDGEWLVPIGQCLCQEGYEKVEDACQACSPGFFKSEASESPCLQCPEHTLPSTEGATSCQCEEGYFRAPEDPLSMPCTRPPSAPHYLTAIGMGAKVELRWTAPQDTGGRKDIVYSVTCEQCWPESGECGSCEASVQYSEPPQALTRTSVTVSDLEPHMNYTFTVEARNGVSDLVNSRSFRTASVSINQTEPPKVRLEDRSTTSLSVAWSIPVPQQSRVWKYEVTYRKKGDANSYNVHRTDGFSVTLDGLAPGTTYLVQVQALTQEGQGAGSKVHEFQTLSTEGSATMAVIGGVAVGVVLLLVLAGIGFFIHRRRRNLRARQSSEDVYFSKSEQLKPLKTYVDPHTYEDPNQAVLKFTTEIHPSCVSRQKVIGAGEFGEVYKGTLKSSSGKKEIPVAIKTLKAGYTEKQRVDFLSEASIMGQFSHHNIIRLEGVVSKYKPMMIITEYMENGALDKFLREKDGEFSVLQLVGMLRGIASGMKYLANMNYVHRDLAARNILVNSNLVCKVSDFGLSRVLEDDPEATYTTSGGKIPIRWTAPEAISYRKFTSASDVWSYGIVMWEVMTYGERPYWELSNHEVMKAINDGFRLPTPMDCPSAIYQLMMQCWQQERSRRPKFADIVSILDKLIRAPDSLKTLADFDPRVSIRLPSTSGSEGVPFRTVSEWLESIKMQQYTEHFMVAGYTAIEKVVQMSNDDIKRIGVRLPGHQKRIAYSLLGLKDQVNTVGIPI

ERK1/2 activity (EphA2 [1]): reduced
EphA2 activation, time course (EphA2 [1]): readily occurred in two minutes
ERK1/2 activity (EphA2 [4]): reduced
EphA2 activation, time course (EphA2 [4]): readily occurred in two minutes
B1: ephrin-A1-Fc: ephrin-A1 dimerized by fusion to the heavy chain of human IgG1 (protein)
chain: DRHTVFWNSSNPKFRNEDYTIHVQLNDYVDIICPHYEDHSVADAAMEQYILYLVEHEEYQLCQPQSKDQVRWQCNRPSAKHGPEKLSEKFQRFTPFTLGKEFKEGHSYYYISKPIHQHEDRCLRLKVTVSGKITHSPQAHDNPQEKRLAADDPEVRVLHSIGHS
modifications: left off: a dimerising Fc or GST
notes: ephrin-A1 dimerized by fusion to the heavy chain of human IgG1
fraction of scattered cells (DU-145 cells; 24 hour HGF treatment, 95% with HGF and Fc): 15%
cell morphology (DU-145 cells; without HGF/SF): more compact cobblestone morphology
targeting to tumors (GFP-PC-3 cells; frozen sections stained with anti-human Fc): target to GFP-PC-3 tumors
tumor growth after three weeks of treatment (GFP-PC-3 cells; i.p.): lack of effects after three weeks of treatment
s.c. tumor growth (GFP-PC-3 cells; i.p., vs human IgG): inhibited s.c. tumor growth
effect of ligand clustering on inhibition of cell adhesion to fibronectin [2]: did not increase the inhibitory effects
ERK and AKT phosphorylation [3]: inhibits ERK and AKT phosphorylation
